Here are results for 8 molecules from US20230357348A1 (AstraZeneca / MedImmune, published 2023).

Test [1] concerns the target human glucagon receptor (hGCGR) (human, UniProt P47871 26-477). The test is described as follows: cell-based or functional assay.
The target of test [2] is human GLP-1 receptor (hGLP-1R) (human, UniProt P43220 24-463). Description: cell-based or functional assay.

Starred links: 1 amine or outer side, 2 acyl side, 3 side chain; linkers in the order of their positions; H or OH if unused. Non-standard residues stand in square brackets, D forms with d. Groups on a side chain read outwards from the residue. No end group written: not given here. *: point of attachment. PEG12 = NCCOCCOCCOCCOCCOCCOCCOCCOCCOCCOCCOCCOCCC(=O)O; C18 diacid = O=C(O)CCCCCCCCCCCCCCCCC(=O)*; PEG8 = NCCOCCOCCOCCOCCOCCOCCOCCOCCC(=O)O; Dip = N[C@H](C(=O)O)C(c1ccccc1)c1ccccc1; γGlu = O=C(O)[C@H](CCC(=O)[*:2])N[*:1]; Stearoyl = CCCCCCCCCCCCCCCCCC(=O)*; αMeF = C[C@](N)(Cc1ccccc1)C(=O)O; (PEG)2 = polyethylene glycol 2; PEG4 = NCCOCCOCCOCCOCCC(=O)O; AEEA = NCCOCCOCC(=O)O; Aib = CC(C)(N)C(=O)O

Sequence of human glucagon receptor (hGCGR) (P47871 26-477): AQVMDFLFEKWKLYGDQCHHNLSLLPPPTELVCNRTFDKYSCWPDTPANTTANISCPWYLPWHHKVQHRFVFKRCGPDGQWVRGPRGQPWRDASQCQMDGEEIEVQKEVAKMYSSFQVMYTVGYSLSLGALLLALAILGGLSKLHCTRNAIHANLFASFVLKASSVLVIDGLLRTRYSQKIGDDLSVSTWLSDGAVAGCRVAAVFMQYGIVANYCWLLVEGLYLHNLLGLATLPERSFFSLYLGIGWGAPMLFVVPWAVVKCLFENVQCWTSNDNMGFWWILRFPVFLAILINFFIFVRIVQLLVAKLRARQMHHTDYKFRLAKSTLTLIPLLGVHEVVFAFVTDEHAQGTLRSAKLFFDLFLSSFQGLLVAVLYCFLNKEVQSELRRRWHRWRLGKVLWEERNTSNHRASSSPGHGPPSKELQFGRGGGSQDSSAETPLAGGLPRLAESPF

B1: Peptide 6 (peptide)
peptide: H[Aib]HGS[αMeF]TSDVSK[αMeF]LDSK([AEEA-AEEA-γGlu-C18 diacid])AAQD[αMeF]VEWIAN-NH2
modifications: N-terminus assumed
SMILES: CC[C@H](C)[C@H](NC(=O)[C@H](Cc1c[nH]c2ccccc12)NC(=O)[C@H](CCC(=O)O)NC(=O)[C@@H](NC(=O)[C@](C)(Cc1ccccc1)NC(=O)[C@H](CC(=O)O)NC(=O)[C@H](CCC(N)=O)NC(=O)[C@H](C)NC(=O)[C@H](C)NC(=O)[C@H](CCCCNC(=O)COCCOCCNC(=O)COCCOCCNC(=O)CC[C@H](NC(=O)CCCCCCCCCCCCCCCCC(=O)O)C(=O)O)NC(=O)[C@H](CO)NC(=O)[C@H](CC(=O)O)NC(=O)[C@H](CC(C)C)NC(=O)[C@](C)(Cc1ccccc1)NC(=O)[C@H](CCCCN)NC(=O)[C@H](CO)NC(=O)[C@@H](NC(=O)[C@H](CC(=O)O)NC(=O)[C@H](CO)NC(=O)[C@@H](NC(=O)[C@](C)(Cc1ccccc1)NC(=O)[C@H](CO)NC(=O)CNC(=O)[C@H](Cc1c[nH]cn1)NC(=O)C(C)(C)NC(=O)[C@@H](N)Cc1c[nH]cn1)[C@@H](C)O)C(C)C)C(C)C)C(=O)N[C@@H](C)C(=O)N[C@@H](CC(N)=O)C(N)=O
As to B1, the “hGluc-R EC50 (pM)” value in test [1] was 516 pM. The “hGLP-1R EC50 (pM)” value in test [2] came out at 568 pM.

B2: Peptide 55 (peptide)
peptide: HSQGS[αMeF]TSDVSK[Dip]LDSK([(PEG)2-(PEG)2-γGlu-γGlu-Stearoyl])AAQD[αMeF]VQ[Dip]LEA-NH2
Regarding B2, the “hGluc-R EC50 (pM)” value in test [1] worked out at 19.1 pM. In test [2], the “hGLP-1R EC50 (pM)” value is 18.8 pM.

B3: Peptide 57 (peptide)
peptide: HSQGS[αMeF]TSDVSK[Dip]LDSK([PEG8-γGlu-γGlu-Stearoyl])AAQD[αMeF]VE[Aib]IINT-NH2
modifications: N-terminus assumed
SMILES: CCCCCCCCCCCCCCCCCC(=O)N[C@@H](CCC(=O)N[C@@H](CCC(=O)NCCOCCOCCOCCOCCOCCOCCOCCOCCC(=O)NCCCC[C@H](NC(=O)[C@H](CO)NC(=O)[C@H](CC(=O)O)NC(=O)[C@H](CC(C)C)NC(=O)[C@@H](NC(=O)[C@H](CCCCN)NC(=O)[C@H](CO)NC(=O)[C@@H](NC(=O)[C@H](CC(=O)O)NC(=O)[C@H](CO)NC(=O)[C@@H](NC(=O)[C@](C)(Cc1ccccc1)NC(=O)[C@H](CO)NC(=O)CNC(=O)[C@H](CCC(N)=O)NC(=O)[C@H](CO)NC(=O)[C@@H](N)Cc1c[nH]cn1)[C@@H](C)O)C(C)C)C(c1ccccc1)c1ccccc1)C(=O)N[C@@H](C)C(=O)N[C@@H](C)C(=O)N[C@@H](CCC(N)=O)C(=O)N[C@@H](CC(=O)O)C(=O)N[C@@](C)(Cc1ccccc1)C(=O)N[C@H](C(=O)N[C@@H](CCC(=O)O)C(=O)NC(C)(C)C(=O)N[C@H](C(=O)N[C@H](C(=O)N[C@@H](CC(N)=O)C(=O)N[C@H](C(N)=O)[C@@H](C)O)[C@@H](C)CC)[C@@H](C)CC)C(C)C)C(=O)O)C(=O)O
For B3, the “hGluc-R EC50 (pM)” value in test [1] was found to be 16.9 pM. In addition, in test [2], the “hGLP-1R EC50 (pM)” value was 9.09 pM.

B4: Peptide 56 (peptide)
peptide: HSQGS[αMeF]TSDVSK[Dip]LDSK([PEG4-γGlu-γGlu-Stearoyl])AAQD[αMeF]VE[Aib]IINT-NH2
modifications: N-terminus assumed
SMILES: CCCCCCCCCCCCCCCCCC(=O)N[C@@H](CCC(=O)N[C@@H](CCC(=O)NCCOCCOCCOCCOCCC(=O)NCCCC[C@H](NC(=O)[C@H](CO)NC(=O)[C@H](CC(=O)O)NC(=O)[C@H](CC(C)C)NC(=O)[C@@H](NC(=O)[C@H](CCCCN)NC(=O)[C@H](CO)NC(=O)[C@@H](NC(=O)[C@H](CC(=O)O)NC(=O)[C@H](CO)NC(=O)[C@@H](NC(=O)[C@](C)(Cc1ccccc1)NC(=O)[C@H](CO)NC(=O)CNC(=O)[C@H](CCC(N)=O)NC(=O)[C@H](CO)NC(=O)[C@@H](N)Cc1c[nH]cn1)[C@@H](C)O)C(C)C)C(c1ccccc1)c1ccccc1)C(=O)N[C@@H](C)C(=O)N[C@@H](C)C(=O)N[C@@H](CCC(N)=O)C(=O)N[C@@H](CC(=O)O)C(=O)N[C@@](C)(Cc1ccccc1)C(=O)N[C@H](C(=O)N[C@@H](CCC(=O)O)C(=O)NC(C)(C)C(=O)N[C@H](C(=O)N[C@H](C(=O)N[C@@H](CC(N)=O)C(=O)N[C@H](C(N)=O)[C@@H](C)O)[C@@H](C)CC)[C@@H](C)CC)C(C)C)C(=O)O)C(=O)O
For the molecule B4, the “hGluc-R EC50 (pM)” value in test [1] was determined as 10.9 pM. For the same molecule, the “hGLP-1R EC50 (pM)” value in test [2] was 4.86 pM.

B5: Peptide 60 (peptide)
peptide: HSQGS[αMeF]TSDVSK[Dip]LDSK([γGlu-(PEG)2-γGlu-(PEG)2-Stearoyl])AAQD[αMeF]VE[Aib]IINT-NH2
For B5, the “hGluc-R EC50 (pM)” value in test [1] was determined as 21.1 pM. Moreover, the “hGLP-1R EC50 (pM)” value in test [2] was 5.16 pM.

B6: Peptide 58 (peptide)
peptide: HSQGS[αMeF]TSDVSK[Dip]LDSK([PEG12-γGlu-γGlu-Stearoyl])AAQD[αMeF]VE[Aib]IINT-NH2
modifications: N-terminus assumed
SMILES: CCCCCCCCCCCCCCCCCC(=O)N[C@@H](CCC(=O)N[C@@H](CCC(=O)NCCOCCOCCOCCOCCOCCOCCOCCOCCOCCOCCOCCOCCC(=O)NCCCC[C@H](NC(=O)[C@H](CO)NC(=O)[C@H](CC(=O)O)NC(=O)[C@H](CC(C)C)NC(=O)[C@@H](NC(=O)[C@H](CCCCN)NC(=O)[C@H](CO)NC(=O)[C@@H](NC(=O)[C@H](CC(=O)O)NC(=O)[C@H](CO)NC(=O)[C@@H](NC(=O)[C@](C)(Cc1ccccc1)NC(=O)[C@H](CO)NC(=O)CNC(=O)[C@H](CCC(N)=O)NC(=O)[C@H](CO)NC(=O)[C@@H](N)Cc1c[nH]cn1)[C@@H](C)O)C(C)C)C(c1ccccc1)c1ccccc1)C(=O)N[C@@H](C)C(=O)N[C@@H](C)C(=O)N[C@@H](CCC(N)=O)C(=O)N[C@@H](CC(=O)O)C(=O)N[C@@](C)(Cc1ccccc1)C(=O)N[C@H](C(=O)N[C@@H](CCC(=O)O)C(=O)NC(C)(C)C(=O)N[C@H](C(=O)N[C@H](C(=O)N[C@@H](CC(N)=O)C(=O)N[C@H](C(N)=O)[C@@H](C)O)[C@@H](C)CC)[C@@H](C)CC)C(C)C)C(=O)O)C(=O)O
As for B6, the “hGluc-R EC50 (pM)” value in test [1] worked out at 11.3 pM. In test [2], the “hGLP-1R EC50 (pM)” value was found to be 3.9 pM.

B7: Peptide 7 (peptide)
peptide: H[Aib]HGS[αMeF]TSDVSK[αMeF]LDSK([γGlu-C18 diacid])AAQD[αMeF]VEWIANT-NH2
modifications: N-terminus assumed
SMILES: CC[C@H](C)[C@H](NC(=O)[C@H](Cc1c[nH]c2ccccc12)NC(=O)[C@H](CCC(=O)O)NC(=O)[C@@H](NC(=O)[C@](C)(Cc1ccccc1)NC(=O)[C@H](CC(=O)O)NC(=O)[C@H](CCC(N)=O)NC(=O)[C@H](C)NC(=O)[C@H](C)NC(=O)[C@H](CCCCNC(=O)CC[C@H](NC(=O)CCCCCCCCCCCCCCCCC(=O)O)C(=O)O)NC(=O)[C@H](CO)NC(=O)[C@H](CC(=O)O)NC(=O)[C@H](CC(C)C)NC(=O)[C@](C)(Cc1ccccc1)NC(=O)[C@H](CCCCN)NC(=O)[C@H](CO)NC(=O)[C@@H](NC(=O)[C@H](CC(=O)O)NC(=O)[C@H](CO)NC(=O)[C@@H](NC(=O)[C@](C)(Cc1ccccc1)NC(=O)[C@H](CO)NC(=O)CNC(=O)[C@H](Cc1c[nH]cn1)NC(=O)C(C)(C)NC(=O)[C@@H](N)Cc1c[nH]cn1)[C@@H](C)O)C(C)C)C(C)C)C(=O)N[C@@H](C)C(=O)N[C@@H](CC(N)=O)C(=O)N[C@H](C(N)=O)[C@@H](C)O
On to B7, for which the “hGluc-R EC50 (pM)” value in test [1] worked out at 30.7 pM. Further, the “hGLP-1R EC50 (pM)” value in test [2] came to 84.6 pM.

B8: Peptide 59 (peptide)
peptide: HSQGS[αMeF]TSDVSK[Dip]LDSK([γGlu-γGlu-(PEG)2-(PEG)2-Stearoyl])AAQD[αMeF]VE[Aib]IINT-NH2
As for B8, the “hGluc-R EC50 (pM)” value in test [1] worked out at 28.4 pM. Besides, the “hGLP-1R EC50 (pM)” value in test [2] was 6.18 pM.
